Source: patent US20170035877A1

Legend:
[1] = biological target: 16055 SOSIP.663 trimer, negatively selected (flow-through of the GE136 column) (HIV-1 16055 (subtype C)); experiment: negative-stain EM, 2D class averages
[2] = biological target: JRFL SOSIP.663 trimer, negatively selected (flow-through of the F105 column) (HIV-1 JRFL (subtype B)) (UniProt P20871); experiment: negative-stain EM, 2D class averages
[3] = biological target: 16055 gp120 (HIV-1 16055 (subtype C))
[4] = biological target: 16055 SOSIP.663 trimer, negatively selected (flow-through of the GE136 column) (HIV-1 16055 (subtype C)); experiment: negative-stain EM, stoichiometry from micrographs
[5] = biological target: JRFL SOSIP.663 trimer, negatively selected (flow-through of the F105 column) (HIV-1 JRFL (subtype B)) (UniProt P20871); experiment: negative-stain EM, stoichiometry from micrographs
[6] = biological target: 16055 SOSIP (HIV-1 16055 (subtype C)); experiment: ITC; details: Fab

Substance: 19b Fab
- percent of trimers with one Fab bound [1]: 22%
- percent of trimers with one Fab bound [2]: 25%

Substance: F105
- Kd [3]: 30.2 nM

Substance: PGT151 Fab
- percent of trimers with one Fab bound [4]: 34%
- percent of trimers with three Fabs bound [4]: 0%
- percent of trimers with two Fabs bound [4]: 20%
- percent of trimers with one Fab bound [5]: 28%
- percent of trimers with three Fabs bound [5]: 11%
- percent of trimers with two Fabs bound [5]: 36%

Substance: VRC01 Fab
- Kd [6]: 97 nM
